Tested on: MS2 coat protein
Assay: apparent KD of MS2 coat protein; designed switch direction (-1 OFF switch, 1 ON switch): 1; higher = weaker reporter binding
How it was run: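 The reported apparent KD is a per-design median over clusters, from curve fits of normalised cluster fluorescence. Protein titrations used SNAP-549-labelled MS2 coat protein, doubled from 0.7 or 1.5 nM to 3 µM, in Tris-HCl pH 7.5 buffer with KCl, MgCl2, BSA, DTT, tRNA and Tween-20, with no input, 200 uM small-molecule ligand, or an oligonucleotide input. The RNA switches were transcribed on Illumina chips by stalled E. coli RNA polymerase.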

[1] = input ligand: microRNA oligo, concentration not stated
[2] = Eterna round: R95, input ligand: FMN 200 uM
[3] = Eterna round: R95, input ligand: microRNA oligo, concentration not stated
[4] = Eterna round: R95, input ligand: none

Row | Sequence | apparent KD of MS2 coat protein (input ligand: FMN 200 uM) [nM] | apparent KD of MS2 coat protein [1] [nM] | apparent KD of MS2 coat protein (input ligand: none) [nM] | apparent KD of MS2 coat protein [2] [nM] | apparent KD of MS2 coat protein [3] [nM] | apparent KD of MS2 coat protein [4] [nM]
1 | UGGUACAUGGGAGGAUAUGGAGUGAAGACAUGAGGAUCACCCAUGUUAUAAAAGCCGAGAGGCAACUAGAAGGCCCAUGUACCU [JL SSNG1 3.93] (Eterna round: R96, puzzle: Same State NG 2) | 14.3 | 37 | 55 | – | – | –
2 | GCCGGACAUGAGGAUCACCCAUGUCCUCACUAUACAGGAUAUCGGGUAGGAUCCCUACGGCGAGAAGGGUAUAAAA [Inarquat] (puzzle: Same State 1) | – | – | – | 34.2 | 32.2 | 22.1
3 | UAACAGUACAAUUUAGAUCUACAUGAGGAUCACCCAUGUACUGAGGAUAUCAGCUCGUGUAGAGCUGAGAAGGCAGAAGAACUA [SSNG3/11-A4] (Eterna round: R96, puzzle: Same State NG 3) | 38.1 | 93.4 | 173 | – | – | –
4 | AUUUAACAAGCUUUUUGCUCGUCUUAUAAACAUGAGGAUCACCCAUGUAAUAGCGUGAGAGUAAAUAAUUUAAUUAU [JMF 99] (puzzle: Sensor for hsa-mir-208a) | – | – | – | 13.7 | 48.6 | 10.8
5 | AAUUCAAACAGAGGAUAUUGUUUAUCUCUAUUGCAAGAAGGCUGAUCUUACUACCCACUUAUGAAACAUGAGGAUCACCCAUGU [JR_SSNG1_Sub018] (Eterna round: R96, puzzle: Same State NG 1) | – | 30.1 | – | – | – | –
6 | AGGCUCAGAGCAGGAUAUACGUGGUCACAUGAGGAUCACCCAUGUCUCGAGCUUCGGCUCGAGGCGUAGAAGGGCUCUGAGCCA [SSNG2/6-B1] (Eterna round: R96, puzzle: Same State NG 2) | 140 | 204 | 330 | – | – | –
7 | GGAAACAAGAGAGGAUAUGCAGAGGAUCACCCUGCAGAAGGCUCCCUAGAGAGGAUAUGCAGAGGAUCACCCUGCAGAAGGCUC [pwkr ssNG DX.25] (Eterna round: R96, puzzle: Same State NG 1) | 4.46 | 9.9 | 24.6 | – | – | –
8 | AUGUUUAAUGCAGGAUAUGAUUAACAUGAGGAUCACCCAUGUGGUGUUGUGAGUAAGGAGAGUGAUCAGAAGGGCAUUUUUUUU [JMF's solution 101] (Eterna round: R96, puzzle: Same State NG 2) | – | 516 | – | – | – | –
9 | AGCUAUCGCGUACGAUAGCUGAAGCGUGUACAUGAGGAUCACCCAUGUCAUGUGCAGGCUUUUUGCUCGUCUUAUUG [JL-shm-2.31 JL mod] (puzzle: Sensor for hsa-mir-208a) | – | – | – | 640 | 17.2 | 648
10 | UAGGGACAUGAGGAUCACCCAUGUGCCUCAUAUGGAGAAACUCAGGAUAUGCUGAGGAUCACCCGGCAGAAGGGAGAUUUGACC (Eterna round: R96, puzzle: Same State NG 3) | 24.2 | 37.1 | 53.2 | – | – | –
11 | GAGGAUGAUUUACAGGAUAUAUAGGAGAUGACAUGAGGAUCACCCAUGUAGGAGAUAGGAGUGAGAUAGAAGGGUAAGUGAUGUG [JR_SS2_Sub43] (puzzle: Same State 2) | – | – | – | 58.9 | 122 | 114
12 | GGAGCCGGCCUAGGAUAUUUCAUAAAAAGACAUGAGGAUCACCCAUGUAGGCCAGAAGGCCUUGGGAAGAAGGAGGUCGGCUCC [Loop Effect - G29] (Eterna round: R96, puzzle: Same State NG 2) | 20.8 | 22.7 | 32.9 | – | – | –
13 | GGAUGAUAGACAGGAUAUUGAUUGUAAUUUUGUCAAGAAGGGUCUUUGAUUUAAACGACCAGUUACAUGAGGAUCACCCAUGUU [JR_SSNG1_Sub030] (Eterna round: R96, puzzle: Same State NG 1) | 20.1 | 27.6 | 30.3 | – | – | –
14 | ACGCAGCUGGGUGAGGAUAUUGGUGGUACAACAUGAGGAUCACCCAUGUCCGAAGCUCGGACCUCCGAGAAGGCGCCCGGCUGCG [Soinraesar Omei Mod 4] (puzzle: Same State 2) | – | – | – | 39.7 | 269 | 912
15 | GAGGGAUGAGCGUAGGAUAUAGGAGAAGUGACAUGAGGAUCACCCAUGUGGUAUGAGGGAUGAUUCUAGAAGGACGCGGUAGAAG [JR_SS2_Sub063] (puzzle: Same State 2) | – | – | – | 149 | 399 | 373
16 | CAUAAUAAAACGGAGGAUAUGCUACCCUUCACAUGAGGAUCACCCAUGUUACCCUCUUAUUUUCAGUAGAAGGCCGAUACAUAAC [Delilah] (puzzle: Same State 2) | – | – | – | 38.1 | 31.9 | 38.9

Row | Sequence | apparent KD of MS2 coat protein (input ligand: FMN 200 uM) [nM] | apparent KD of MS2 coat protein [1] [nM] | apparent KD of MS2 coat protein (input ligand: none) [nM] | apparent KD of MS2 coat protein [2] [nM] | apparent KD of MS2 coat protein [3] [nM] | apparent KD of MS2 coat protein [4] [nM]
17 | AACAAUCUAUCUGAGGAUAUCAUGAAAUAUACAUGAGGAUCACCCAUGUGCAGGAAAACUGCAUAUGAGAAGGCAGAUAGAUUGA [salish99_ss2_r3_034] (puzzle: Same State 2) | – | – | – | 59 | 612 | 3190
18 | AUUUUUAAUGCAGGAUAUGAUUAACAUGAGGAUCACCCAUGUGGUGUUGUGAGUAAGGAGAGUGAUCAGAAGGGCAUUUUUUGU [JMF's solution 87] (Eterna round: R96, puzzle: Same State NG 2) | 827 | 301 | 621 | – | – | –
19 | GACCGCGAGGAAGGAUAUGGAGCCUUAAAGGCUCCAGAAGGUCCAUAAAGGACAUGAGGAUCACCCAUGUGGUGAGAAGCGGUC [Mat - Same State NG 1 - JL mod - D75] (Eterna round: R96, puzzle: Same State NG 1) | – | 711 | – | – | – | –
20 | GGUCCAGCCUGAGCUGGACUACAGCAUGUACAUGAGGAUCACCCAUGUCAUGUACAUGUUUUUUGUUUGUCUUAAAA [Sensorship 9 - Jieux - Sensor for hsa-mir-208a] (puzzle: Sensor for hsa-mir-208a) | – | – | – | 69 | 70.1 | 99.4
21 | AUUAUUUAUGCAGGAUAUGAUUAACAUGAGGAUCACCCAUGUGGUGUUGUGAGUAAGGAGAGUGAUCAGAAGGGCAUUUGUUUU [JMF's solution 48] (Eterna round: R96, puzzle: Same State NG 2) | 386 | 321 | 402 | – | – | –
22 | AAGCCUGUAGCACAGGAUAUCCGAGGCAAAACAUGAGGAUCACCCAUGUCAAACGAAAAUCCGAAGGAGAAGGGUGAACAGGCUC [Laarededqu] (puzzle: Same State 2) | – | – | – | 10.9 | 7.83 | 8.24
23 | GCUCGCACGAUGACCCACAUGAGGAUCACCCAUGUGUGUGGGUAGGAUAUCUAGAUUAAGGAUGUAGAGAAGGGCCGAGCGAGC [SameState NG3 #23] (Eterna round: R96, puzzle: Same State NG 3) | 576 | 429 | 600 | – | – | –
24 | ACAUGAGAUGGAGGAUAUUUUGUACCUACAUGUGACAUGAGGAUCACCCAUGUGGUAAGUAUGAGAAAGAAGGCCAAGAUAUGU [Equivalence 17 - Jieux - Same State NG 2] (Eterna round: R96, puzzle: Same State NG 2) | 17.6 | 18.4 | 28.5 | – | – | –
25 | UCUGCAUGAACAGGAUAUGGGUUCAGAGCGGGAGUGCGCUUUGACACAUGAGGAUCACCCAUGUCCCAGAAGGGUUCAAGCGGC [Rianbein] (Eterna round: R96, puzzle: Same State NG 2) | 47.7 | 219 | 430 | – | – | –
26 | GGAGGACAUGAGGAUCACCCAUGUGGAUGGGCGCUAGGAUAUGCGUGCGGGAAGAGUGGAGCAGAAGGAGUGGGUU [JR_SS1_Sub045] (puzzle: Same State 1) | – | – | – | – | 37.4 | –
27 | GCAGGGCCGGGCCCUGCAGACAUGAGGAUCACCCAUGUAACACAGGAUAUGACUGGGAUACCUGGUUAGAAGGGUGCGAAAGAA [Ustivetice] (Eterna round: R96, puzzle: Same State NG 3) | 299 | 645 | 57.4 | – | – | –
28 | GUUACAUGAGGAUCACCCAUGUGUGUGUGGGAGUGAGUGGCUUAGGAUAUCUAUGAUUUAAGUUAAGAGAAGGAAGAUUGUUGU [SS-NG3-LRO03] (Eterna round: R96, puzzle: Same State NG 3) | 415 | 196 | 352 | – | – | –
29 | UUUAGUUGCGCGCAGGAUAUGUAUUAAUAUACAUGAGGAUCACCCAUGUGAGACCAAAUAGGUCUACAGAAGGGCGAAUCGCGAC [Laonerce - 29] (puzzle: Same State 2) | – | – | – | 29.4 | 234 | 715
30 | UAUAAACAUGAGGAUCACCCAUGUAAUAAUAUGGGAGGAUAUCAGAAUUUAUUUAUUUAAUGAGAAGGCCUAAUAU [Mat - Same State 1 - Mod of Eli - D67] (puzzle: Same State 1) | – | – | – | 34.5 | 210 | 562
31 | GCUGCAAAGGCAGGAUAUGGGUCCAGAGCGCAAAUGCGCUCUGGUACAUGAGGAUCACCCAUGUCCCAGAAGGGCCCAAGCAGC [Inleedbi] (Eterna round: R96, puzzle: Same State NG 2) | 17 | 61.3 | 117 | – | – | –
32 | GGAAUAUUUACAGGAUAUGAGUUGUAAAGUCGAUCAGAAGGGUAGGUGUCUUACACGGUGUGUUACAUGAGGAUCACCCAUGUU [SameState NG1 #20] (Eterna round: R96, puzzle: Same State NG 1) | 136 | 147 | 215 | – | – | –

Source: the supplement of paper PMC9170038
